# From patent US20210032365A1 (Chugai, published 2021)
# T1: human C1s (human, UniProt P09871 16-688)
# T1 construct: Analyte in the Biacore assays; also called hC1s; serum-derived human C1s (CompTech)
# T1 sequence: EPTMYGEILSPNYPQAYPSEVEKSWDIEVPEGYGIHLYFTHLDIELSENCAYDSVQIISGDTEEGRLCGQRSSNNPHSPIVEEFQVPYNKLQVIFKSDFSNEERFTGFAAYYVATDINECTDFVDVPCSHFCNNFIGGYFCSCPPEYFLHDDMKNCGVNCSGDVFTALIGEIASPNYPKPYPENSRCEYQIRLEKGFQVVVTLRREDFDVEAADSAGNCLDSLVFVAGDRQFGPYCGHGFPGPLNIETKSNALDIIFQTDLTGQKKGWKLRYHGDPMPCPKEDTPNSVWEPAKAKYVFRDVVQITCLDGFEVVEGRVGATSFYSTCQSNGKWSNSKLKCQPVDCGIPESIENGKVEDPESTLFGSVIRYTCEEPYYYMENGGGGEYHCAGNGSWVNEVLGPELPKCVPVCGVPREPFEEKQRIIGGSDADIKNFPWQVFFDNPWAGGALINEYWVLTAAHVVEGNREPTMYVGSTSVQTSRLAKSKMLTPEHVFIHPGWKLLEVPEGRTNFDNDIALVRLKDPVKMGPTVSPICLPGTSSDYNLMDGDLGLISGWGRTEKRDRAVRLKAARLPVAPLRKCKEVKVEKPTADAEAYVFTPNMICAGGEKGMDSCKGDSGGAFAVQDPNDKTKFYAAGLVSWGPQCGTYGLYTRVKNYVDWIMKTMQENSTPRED
# Tests used:
# human C1s [1] = target: T1, human C1s; test: SPR; KD at pH 5.8 (3 uM Ca) over KD at pH 7.4 (1.2 mM Ca)
# Experimental: (§1) Each antibody was captured onto the sensor surface by protein A/G. Antibody capture levels were aimed at 200 resonance unit (RU). Serum-derived human C1s (CompTech) or recombinant C1s prepared in EXAMPLE 1 was injected at 50 nM, followed by dissociation. The sensor surface was regenerated in each cycle with 10 mM Glycine-HCl, pH 1.5. […] The ratio of KD 5.8+ to KD 7.4+(“KD 5+/7+”) and that of KD 5.8− to KD 7.4+(“KD 5−/7+”) were calculated. When the KD 5+/7+ or KD 5−/7+ of a variant is larger than that of the parent antibody IPN009VH2-SG4GK/IPN009VK3-SK1, that variant is considered to be “pH”- or “pH and Ca”-dependent, respectively. When binding response in 5(+) buffer and/or in 5(−) buffer of a variant is much lower than that of IPN09VH2/IPN009VK3, that variant is also considered as “pH”- and/or “pH and Ca”-dependent. Therefore, such mutations are effective to generate “pH”- and/or “pH and Ca”-dependent antibody. To further enhance “pH” and/or “pH and Ca” dependency, a combination of histidine mutations was conducted. Antibodies with combinations of histidine mutations were evaluated using Biacore by the method described above.
# (§2) C1_1IPN92H0033 (SEQ ID NO: 17)-SG4GK/IPN93L0024 (SEQ ID NO: 18)-SK1 (IPN92H0033/IPN93L0024) was selected for further optimization. Histidine, Lysine, Arginine, aspartic acid, glutamic acid, and glutamine scanning was conducted for CDRs and certain positions of FRs of IPN92H0033/IPN93L0024. Variants with a mutation were generated and purified, and evaluated using Biacore by the method mentioned above. All variants were evaluated using Biacore as mentioned above. Mutations that improved “pH” and/or “pH and Ca” dependency were selected for the combination.
# human C1s [2] = target: T1, human C1s; test: SPR; KD at pH 5.8 (1.2 mM Ca) over KD at pH 7.4 (1.2 mM Ca)
# Experimental: as §1, §2
# human C1s [3] = target: T1, human C1s; test: SPR (Biacore T200, 37C), Ab captured on protein A/G; pH 5.8, 3 uM Ca
# Experimental: as §1, §2
# human C1s [4] = target: T1, human C1s; test: SPR (Biacore T200, 37C), Ab captured on protein A/G; pH 5.8, 1.2 mM Ca
# Experimental: as §1, §2
Binder,KD 5(-)/7(+) (human C1s [1]),KD 5(+)/7(+) (human C1s [2]),Kd (human C1s [3]),koff (human C1s [3]),kon (human C1s [3]),Kd (human C1s [4]),koff (human C1s [4]),kon (human C1s [4])
"C1_IPN92H0159-SG4GK/IPN93L0024-SK1 (antibody, human IgG4 S228P, kappa, name in Kabat numbering, V domains shown, Substitutions from IPN009VH2, Kabat numbering; also called IPN92H0159/IPN93L0024) VH: EVMLVESGGGLVKPGGSLRLSCAASGFTFSNYAMSWVRQAPGKGLEWVATISSGGSHTYDLDSVKGRFTISRDNSKDTLYLQMNSLRAEDTALYYCARLFTGHAMDYWGQGTLVTVSS VL: QIVLTQSPATLSLSPGERATLSCTASSSVSSSYLHWYQQKPGKAPKLWIYSTSNLASGVPSRFSGSGSGTDYTLTISSLQPEDFATYYCHQYYRLHPITFGQGTKLEIKR",3.57,8.1,7.36 nM,0.00401 s⁻¹,544000 M⁻¹ s⁻¹,16.6 nM,0.00699 s⁻¹,421000 M⁻¹ s⁻¹
"C1_IPN92H0145-SG4GK/IPN93L0024-SK1 (antibody, human IgG4 S228P, kappa, name in Kabat numbering, V domains shown, Substitutions from IPN009VH2, Kabat numbering; also called IPN92H0145/IPN93L0024) VH: EVMLVESGGGLVKPGGSLRLSCAASGFTFSNYAMSWVRQAPGKGLEWVATISSGGSRTYYLDSVKGRFTISRDNSKDTLYLQMNSLRAEDTALYYCARLFTGHAMDYWGQGTLVTVSS VL: QIVLTQSPATLSLSPGERATLSCTASSSVSSSYLHWYQQKPGKAPKLWIYSTSNLASGVPSRFSGSGSGTDYTLTISSLQPEDFATYYCHQYYRLHPITFGQGTKLEIKR",1.36,4.1,6.4 nM,0.003 s⁻¹,469000 M⁻¹ s⁻¹,19.2 nM,0.0496 s⁻¹,2.58e+06 M⁻¹ s⁻¹
"C1_IPN92H0117-SG4GK/IPN93L0024-SK1 (antibody, human IgG4 S228P, kappa, name in Kabat numbering, V domains shown, Substitutions from IPN009VH2, Kabat numbering; also called IPN92H0117/IPN93L0024) VH: EVMLVESGGGLVKPGGSLRLSCAASGFTFSNYAMSWVRQAPGKGLEWVATISQGGSHTYYLDSVKGRFTISRDNSKDTLYLQMNSLRAEDTALYYCARLFTGHAMDYWGQGTLVTVSS VL: QIVLTQSPATLSLSPGERATLSCTASSSVSSSYLHWYQQKPGKAPKLWIYSTSNLASGVPSRFSGSGSGTDYTLTISSLQPEDFATYYCHQYYRLHPITFGQGTKLEIKR",2.26,3.8,7.71 nM,0.00542 s⁻¹,703000 M⁻¹ s⁻¹,13.1 nM,0.00799 s⁻¹,610000 M⁻¹ s⁻¹
"C1_IPN92H0156-SG4GK/IPN93L0024-SK1 (antibody, human IgG4 S228P, kappa, name in Kabat numbering, V domains shown, Substitutions from IPN009VH2, Kabat numbering; also called IPN92H0156/IPN93L0024) VH: EVMLVESGGGLVKPGGSLRLSCAASGFTFSNYAMSWVRQAPGKGLEWVATISSGGSHTKYLDSVKGRFTISRDNSKDTLYLQMNSLRAEDTALYYCARLFTGHAMDYWGQGTLVTVSS VL: QIVLTQSPATLSLSPGERATLSCTASSSVSSSYLHWYQQKPGKAPKLWIYSTSNLASGVPSRFSGSGSGTDYTLTISSLQPEDFATYYCHQYYRLHPITFGQGTKLEIKR",4.62,7,9.8 nM,0.00632 s⁻¹,645000 M⁻¹ s⁻¹,14.8 nM,0.00948 s⁻¹,641000 M⁻¹ s⁻¹
"C1_IPN92H0091-SG4GK/IPN93L0024-SK1 (antibody, human IgG4 S228P, kappa, name in Kabat numbering, V domains shown, Substitutions from IPN009VH2, Kabat numbering; also called IPN92H0091/IPN93L0024) VH: EVMLVESGGGLVKPGGSLRLSCAASGFTFSNYAKSWVRQAPGKGLEWVATISSGGSHTYYLDSVKGRFTISRDNSKDTLYLQMNSLRAEDTALYYCARLFTGHAMDYWGQGTLVTVSS VL: QIVLTQSPATLSLSPGERATLSCTASSSVSSSYLHWYQQKPGKAPKLWIYSTSNLASGVPSRFSGSGSGTDYTLTISSLQPEDFATYYCHQYYRLHPITFGQGTKLEIKR",1.28,4.5,3.43 nM,2.67 s⁻¹,7.8e+08 M⁻¹ s⁻¹,12 nM,0.00634 s⁻¹,530000 M⁻¹ s⁻¹
"C1_IPN92H0144-SG4GK/IPN93L0024-SK1 (antibody, human IgG4 S228P, kappa, name in Kabat numbering, V domains shown, Substitutions from IPN009VH2, Kabat numbering; also called IPN92H0144/IPN93L0024) VH: EVMLVESGGGLVKPGGSLRLSCAASGFTFSNYAMSWVRQAPGKGLEWVATISSGGSKTYYLDSVKGRFTISRDNSKDTLYLQMNSLRAEDTALYYCARLFTGHAMDYWGQGTLVTVSS VL: QIVLTQSPATLSLSPGERATLSCTASSSVSSSYLHWYQQKPGKAPKLWIYSTSNLASGVPSRFSGSGSGTDYTLTISSLQPEDFATYYCHQYYRLHPITFGQGTKLEIKR",1.54,6.4,5.65 nM,0.00317 s⁻¹,562000 M⁻¹ s⁻¹,23.4 nM,0.0265 s⁻¹,1.13e+06 M⁻¹ s⁻¹

# Other lines, results leading:
KD 5(-)/7(+) (human C1s [1]),KD 5(+)/7(+) (human C1s [2]),Kd (human C1s [3]),koff (human C1s [3]),kon (human C1s [3]),Kd (human C1s [4]),koff (human C1s [4]),kon (human C1s [4]),Binder
2.86,5,9.09 nM,0.00651 s⁻¹,717000 M⁻¹ s⁻¹,15.9 nM,0.0129 s⁻¹,814000 M⁻¹ s⁻¹,"C1_IPN92H0080-SG4GK/IPN93L0024-SK1 (antibody, human IgG4 S228P, kappa, name in Kabat numbering, V domains shown, Substitutions from IPN009VH2, Kabat numbering; also called IPN92H0080/IPN93L0024) VH: EVMLVESGGGLVKPGGSLRLSCAASGFTFSNRAMSWVRQAPGKGLEWVATISSGGSHTYYLDSVKGRFTISRDNSKDTLYLQMNSLRAEDTALYYCARLFTGHAMDYWGQGTLVTVSS VL: QIVLTQSPATLSLSPGERATLSCTASSSVSSSYLHWYQQKPGKAPKLWIYSTSNLASGVPSRFSGSGSGTDYTLTISSLQPEDFATYYCHQYYRLHPITFGQGTKLEIKR"
4.82,9,7.32 nM,0.00411 s⁻¹,562000 M⁻¹ s⁻¹,13.7 nM,0.00634 s⁻¹,461000 M⁻¹ s⁻¹,"C1_IPN92H0160-SG4GK/IPN93L0024-SK1 (antibody, human IgG4 S228P, kappa, name in Kabat numbering, V domains shown, Substitutions from IPN009VH2, Kabat numbering; also called IPN92H0160/IPN93L0024) VH: EVMLVESGGGLVKPGGSLRLSCAASGFTFSNYAMSWVRQAPGKGLEWVATISSGGSHTYELDSVKGRFTISRDNSKDTLYLQMNSLRAEDTALYYCARLFTGHAMDYWGQGTLVTVSS VL: QIVLTQSPATLSLSPGERATLSCTASSSVSSSYLHWYQQKPGKAPKLWIYSTSNLASGVPSRFSGSGSGTDYTLTISSLQPEDFATYYCHQYYRLHPITFGQGTKLEIKR"
5.07,9.3,10.3 nM,0.00583 s⁻¹,564000 M⁻¹ s⁻¹,18.8 nM,0.012 s⁻¹,636000 M⁻¹ s⁻¹,"C1_IPN92H0157-SG4GK/IPN93L0024-SK1 (antibody, human IgG4 S228P, kappa, name in Kabat numbering, V domains shown, Substitutions from IPN009VH2, Kabat numbering; also called IPN92H0157/IPN93L0024) VH: EVMLVESGGGLVKPGGSLRLSCAASGFTFSNYAMSWVRQAPGKGLEWVATISSGGSHTRYLDSVKGRFTISRDNSKDTLYLQMNSLRAEDTALYYCARLFTGHAMDYWGQGTLVTVSS VL: QIVLTQSPATLSLSPGERATLSCTASSSVSSSYLHWYQQKPGKAPKLWIYSTSNLASGVPSRFSGSGSGTDYTLTISSLQPEDFATYYCHQYYRLHPITFGQGTKLEIKR"
1.58,6.4,3.23 nM,,,13.2 nM,0.00589 s⁻¹,445000 M⁻¹ s⁻¹,"C1_IPN92H0147-SG4GK/IPN93L0024-SK1 (antibody, human IgG4 S228P, kappa, name in Kabat numbering, V domains shown, Substitutions from IPN009VH2, Kabat numbering; also called IPN92H0147/IPN93L0024) VH: EVMLVESGGGLVKPGGSLRLSCAASGFTFSNYAMSWVRQAPGKGLEWVATISSGGSHDYYLDSVKGRFTISRDNSKDTLYLQMNSLRAEDTALYYCARLFTGHAMDYWGQGTLVTVSS VL: QIVLTQSPATLSLSPGERATLSCTASSSVSSSYLHWYQQKPGKAPKLWIYSTSNLASGVPSRFSGSGSGTDYTLTISSLQPEDFATYYCHQYYRLHPITFGQGTKLEIKR"
